A word on the EC50: it is the concentration that produces a half-maximal response. Higher therefore signals lower potency in that assay.

The target in the experiment is core-fucosylated RNase B (21) (bovine) (UniProt P61823). As to the kind of experiment: ELISA, glycoprotein coated, AAL-biotin in serial dilution. On the technique in general: In an ELISA, binding on a coated surface is turned into a signal by an enzyme label.
core-fucosylated RNase B (21) (bovine), sequence (P61823 27-150): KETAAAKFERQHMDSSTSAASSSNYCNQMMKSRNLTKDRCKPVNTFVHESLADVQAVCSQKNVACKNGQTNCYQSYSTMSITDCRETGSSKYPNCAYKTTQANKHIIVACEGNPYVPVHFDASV

B1: Aleuria aurantia lectin (AAL) (protein, UniProt P18891 2-313, looked up)
chain: PTEFLYTSKIAAISWAATGGRQQRVYFQDLNGKIREAQRGGDNPWTGGSSQNVIGEAKLFSPLAAVTWKSAQGIQIRVYCVNKDNILSEFVYDGSKWITGQLGSVGVKVGSNSKLAALQWGGSESAPPNIRVYYQKSNGSGSSIHEYVWSGKWTAGASFGSTVPGTGIGATAIGPGRLRIYYQATDNKIREHCWDSNSWYVGGFSASASAGVSIAAISWGSTPNIRVYWQKGREELYEAAYGGSWNTPGQIKDASRPTPSLPDTFIAANSSGNIDISVFFQASGVSLQQWQWISGKGWSIGAVVPTGTPAGW
modifications: biotin label (AAL-biotin), site not stated
Turning to B1, the EC50 is 275 µM.

The values above are taken from US20190185898A1.
